The numbers were not newly measured in paper PMC3773255, which cites them from elsewhere.

In the series the target is E-cadherin EC1-2 (UniProt P12830).

Take E-cadherin EC1-2 (from UniProt P12830): the Kd (as a rule, a measure of binding affinity in units of concentration) was 97 µM.
